Biological target: T1, Aβ42-GFP (Homo sapiens, UniProt P05067)
T1 construct: a chimeric fusion of the human Aβ(1-42) peptide (Aβ42) with GFP; expressed in transfected cells; host or cells: E. coli BL21(DE3)
Assay: High-throughput sequencing of pSICLOPPS vectors isolated after bacterial sorting for enhanced Aβ42-GFP fluorescence
Conditions: for Reads/Total TXXXR reads (%): relative to total TXXXR reads; for Reads/Total pentapeptide reads (%): relative to total pentapeptide reads
Description: On the other hand, very few bioactive sequences resembling AβC5-34 should exist. […] The peptide-encoding vectors contained in these clones were isolated and the peptide-encoding region of approximately 5.6 million of these plasmids was sequenced using an Ion Torrent high-throughput sequencing platform. […] First, pentapeptides were the dominant peptide species within the sorted pool (FIG. 12D), in agreement with previous observations (FIG. 8G). Second, the most prevalent motif among the selected pentapeptide sequences were TXXXR pentapeptides (˜47% of the selected pentapeptide-encoding pSICLOPPS plasmids; ˜42% of the unique selected pentapeptide sequences) (Table 1), in accordance with previous observations (FIG. 8G). […] At position 2, Thr, Ala, and Val were preferred, while aromatic residues (Phe, Trp, Tyr) were completely excluded from the selected TXXXR peptide pool, in full agreement with our site-directed mutagenesis studies. At the highly variable position 3, the complete absence of the negatively charged amino acids Glu and Asp among the selected sequences was notable (FIG. 12E). […] It is noteworthy, that Lys and Gln residues were practically absent from all positions, while the β sheet-breaking amino acid Pro that is typically included in designed peptide-based inhibitors of amyloid aggregation appeared with strikingly low frequencies (FIG. 12E).
Electrocompetent E. coli BL21(DE3) cells (Novagen, USA) carrying either the expression vector pETSOD1(A4V)-GFP, which produces SOD1(A4V)-GFP under control of the strong bacteriophage T7 promoter, or pETAβ42-GFP, which produces Aβ42-GFP under control of the T7 promoter, were co-transformed with the combined pSICLOPPS-NuX1X2X3-X5 vector library. Approximately 10^8 transformants carrying both the vector library and either pETSOD1(A4V)-GFP or pETAβ42-GFP vectors were harvested, pooled together, and grown in Luria-Bertani (LB) liquid medium containing either 0.005% (pETSOD1(A4F)-GFP) or 0.002% (pETAβ42-GFP) L-arabinose—the inducer of cyclic peptide production—at 37° C. with shaking. When the optical density at 600 nm (OD600) of the bacterial culture was about 0.5, 0.01 (pETSOD1(A4F)-GFP) or 0.1 (pETAβ42-GFP) mM isopropyl-β-D-thiogalactoside (IPTG) was added to the medium to induce overexpression of the reporter. […] The isolated cells were re-grown and screened for additional rounds in an identical manner until the desired enrichment in high-fluorescence clones was achieved.
For the characterization of the initial libraries, a combined pSICLOPPS-NuX1X2X3-X5 vector library was prepared containing approximately equal amounts of each one of the tetra-, penta- and hexapeptide sub-libraries. These samples were digested with NcoI and BsrGI and the resulting ˜250 bp product that contained the variable peptide-encoding region was isolated. High-throughput sequencing analysis was performed using an Ion Torrent high-throughput sequencing platform. From the obtained data, all the sequences with mismatches outside of the variable peptide-encoding region were removed, and only the 12-, 15- or 18-bp-long peptide-encoding sequences were subjected to further analysis. The libraries of the selected cyclic peptides that enhance either SOD1(A4V)-GFP or Aβ42-GFP fluorescence were sequenced in a similar manner, with the only exception being that all sequences including stop codons were discarded from subsequent analysis.

[1] = after the second round of bacterial sorting
[2] = after the second round of bacterial sorting, relative to total peptide reads
[3] = high-throughput sequencing of isolated pSICLOPPS-NuX1X2X3-X5 vectors after the second round of bacterial sorting for enhanced Aβ42-GFP fluorescence, selected cyclo-TXXXR pentapeptides
[4] = Table 4, hexapeptides, after second round of sorting
[5] = after the second round of bacterial sorting for enhanced Aβ42-GFP fluorescence
[6] = after the second round of bacterial sorting for enhanced Aβ42-GFP fluorescence, relative to total peptide reads
[7] = pSICLOPPS-NuX1X2X3-X5 vectors after the second round of bacterial sorting for enhanced Aβ42-GFP fluorescence

Substance | Reads/Total TXXXR reads (%) [1] | Reads/Total pentapeptide reads (%) [1] | Reads/Total peptide reads (%) [2] | Number of reads [3] | other results
AβC5-47 (TTIDR; cyclic pentapeptide) | 1.038% | 0.486% | 0.436% | 19,735 | 
TLSWYD [AβC6-47] |  |  |  |  | Reads/Total hexapeptide reads (%) (Table 4): 0.053%; Reads/Total peptide reads (%) (Table 4): 0.005%; Number of reads [4]: 239
TLCWLN [AβC6-32] |  |  |  |  | Reads/Total hexapeptide reads (%) (Table 4): 0.101%; Reads/Total peptide reads (%) (Table 4): 0.010%; Number of reads [4]: 455
AβC5-301 (TTTRR; cyclic) | 0.010% | 0.005% | 0.004% | 191 | 
AβC5-399 (TAFAR; head-to-tail cyclic) |  |  |  |  | Reads/Total TXXXR reads (%) [5]: 0.004%; Reads/Total pentapeptide reads (%) [5]: 0.002%; Reads/Total peptide reads (%) [6]: 0.002%; Number of reads [7]: 82
AβC5-35 (TVRDR; head-to-tail cyclic) | 1.337% | 0.626% | 0.561% | 25,428 | 
AβC5-67 (TARDR; cyclic pentapeptide) | 0.747% | 0.350% | 0.314% | 14,213 | 
AβC5-215 (TTPWR; cyclic) | 0.028% | 0.013% | 0.012% | 524 | 
AβC5-162 (TSVWR; cyclic) | 0.058% | 0.027% | 0.024% | 1,094 | 
AβC5-394 (TTVSR; head-to-tail cyclic) |  |  |  |  | Reads/Total TXXXR reads (%) [5]: 0.005%; Reads/Total pentapeptide reads (%) [5]: 0.002%; Reads/Total peptide reads (%) [6]: 0.002%; Number of reads [7]: 86
AβC5-242 (TTSTR; cyclic) | 0.020% | 0.009% | 0.008% | 376 | 
AβC5-422 (TAWRR; cyclic pentapeptide) |  |  |  |  | Reads/Total TXXXR reads (%) [5]: 0.004%; Reads/Total pentapeptide reads (%) [5]: 0.002%; Reads/Total peptide reads (%) [6]: 0.002%; Number of reads [7]: 72
AβC5-22 (TVLWR; cyclic) | 1.883% | 0.882% | 0.791% | 35,820 | 
cyclo-TLGR (cyclic) [AβC4B-86] |  |  |  |  | Normalized read number (%) (Table 3, cyclo-TXXR tetrapeptides): 0.1697%
AβC5-317 (TTAWR; head-to-tail cyclic) | 0.008% | 0.004% | 0.003% | 156 | 
AβC5-434 (TTSGR; cyclic pentapeptide) |  |  |  |  | Reads/Total TXXXR reads (%) [5]: 0.003%; Reads/Total pentapeptide reads (%) [5]: 0.002%; Reads/Total peptide reads (%) [6]: 0.001%; Number of reads [7]: 65
TPARFD [AβC6-78] |  |  |  |  | Reads/Total hexapeptide reads (%) (Table 4): 0.012%; Reads/Total peptide reads (%) (Table 4): 0.001%; Number of reads [4]: 55
TPGLVD [AβC6-58] |  |  |  |  | Reads/Total hexapeptide reads (%) (Table 4): 0.031%; Reads/Total peptide reads (%) (Table 4): 0.003%; Number of reads [4]: 142
AβC5-177 (TATAR; cyclic) | 0.049% | 0.023% | 0.020% | 925 | 
AβC5-449 (TANAR; cyclic pentapeptide) |  |  |  |  | Reads/Total TXXXR reads (%) [5]: 0.003%; Reads/Total pentapeptide reads (%) [5]: 0.001%; Reads/Total peptide reads (%) [6]: 0.001%; Number of reads [7]: 58
AβC5-262 (TTSSR; cyclic) | 0.015% | 0.007% | 0.006% | 286 | 

Substance | Reads/Total TXXXR reads (%) [1] | Reads/Total pentapeptide reads (%) [1] | Reads/Total peptide reads (%) [2] | Number of reads [3] | other results
AβC5-329 (TTVRR; head-to-tail cyclic) | 0.007% | 0.003% | 0.003% | 141 | 
TPVWFD [AβC6-1] |  |  |  |  | Reads/Total hexapeptide reads (%) (Table 4): 29.151%; Reads/Total peptide reads (%) (Table 4): 2.912%; Number of reads [4]: 131,935
AβC5-382 (TTITR; head-to-tail cyclic) | 0.005% | 0.002% | 0.002% | 92 | 
AβC5-364 (TTMAR; head-to-tail cyclic) | 0.006% | 0.003% | 0.002% | 106 | 
AβC5-146 (TTWSR; cyclic) | 0.085% | 0.040% | 0.036% | 1,612 | 
AβC5-413 (TSHAR; cyclic pentapeptide) |  |  |  |  | Reads/Total TXXXR reads (%) [5]: 0.004%; Reads/Total pentapeptide reads (%) [5]: 0.002%; Reads/Total peptide reads (%) [6]: 0.002%; Number of reads [7]: 74
AβC5-305 (TTADR; cyclic) | 0.010% | 0.004% | 0.004% | 181 | 
AβC5-155 (TSLDR; cyclic) | 0.066% | 0.031% | 0.028% | 1,251 | 
AβC5-129 (TTLFR; cyclic) | 0.138% | 0.065% | 0.058% | 2,630 | 
AβC5-320 (TTVER; head-to-tail cyclic) | 0.008% | 0.004% | 0.003% | 150 | 
TLWVFD [AβC6-37] |  |  |  |  | Reads/Total hexapeptide reads (%) (Table 4): 0.078%; Reads/Total peptide reads (%) (Table 4): 0.008%; Number of reads [4]: 355
AβC5-361 (TTKWR; head-to-tail cyclic) | 0.006% | 0.003% | 0.002% | 108 | 
TLKWLN [AβC6-10] |  |  |  |  | Reads/Total hexapeptide reads (%) (Table 4): 2.434%; Reads/Total peptide reads (%) (Table 4): 0.243%; Number of reads [4]: 11,016
TKEYFD [AβC6-21] |  |  |  |  | Reads/Total hexapeptide reads (%) (Table 4): 0.272%; Reads/Total peptide reads (%) (Table 4): 0.027%; Number of reads [4]: 1,231
TPGWFD [AβC6-55] |  |  |  |  | Reads/Total hexapeptide reads (%) (Table 4): 0.040%; Reads/Total peptide reads (%) (Table 4): 0.004%; Number of reads [4]: 180
TPALFD [AβC6-68] |  |  |  |  | Reads/Total hexapeptide reads (%) (Table 4): 0.022%; Reads/Total peptide reads (%) (Table 4): 0.002%; Number of reads [4]: 101
AβC5-443 (TTHHR; cyclic pentapeptide) |  |  |  |  | Reads/Total TXXXR reads (%) [5]: 0.003%; Reads/Total pentapeptide reads (%) [5]: 0.001%; Reads/Total peptide reads (%) [6]: 0.001%; Number of reads [7]: 60
AβC5-147 (TAMHR; cyclic) | 0.085% | 0.040% | 0.036% | 1,611 | 
AβC5-94 (TVLFR; cyclic) | 0.391% | 0.183% | 0.164% | 7,442 | 
TPLWFN [AβC6-40] |  |  |  |  | Reads/Total hexapeptide reads (%) (Table 4): 0.070%; Reads/Total peptide reads (%) (Table 4): 0.007%; Number of reads [4]: 316

— patent publication US12559863B2, “Macrocyclic modulators of disease associated protein misfolding and aggregation” (RESQ BIOTECH, priority 2017, dated 2026)
